Results published in the supplement of paper PMC7877785.
± gives the uncertainty stated by the source.

Assay: self-splicing fitness, log relative to wild type (ln ratio); higher = more splicing; Tetrahymena group I intron in knt gene, E. coli kanamycin selection, DiMSum; sequences stand for … in CUCUCU…GGAGGGAAAAGUUAUCAGGCAUGCACCUGGUAGCUAGUCUUUAAACCAAUAGAUUGCAUCGGUUUAAAAGGCAAGACCGUCAAAUUGCGGGAAAGGGGUCAACAGCCGUUCAGUACCAAGUCUCAGGGGAAACUUUGAGAUGGCCUUGCAAAGGGUAUGGUAAUAAGCUGACGGACAUGGUCCUAACCACGCAGCCAAGUCCUAAGUCAACAGAUCUUCUGUUGAUAUGGAUGCAGUUCACAGACUAAAUGUCGGUCGGGGAAGAUGUAUUCUUCUCAUAAGAUAUAGUCGGACCUCUCCUUAAUGGGAGCUAGCGGAUGAAGUGAUGCAACACUGGAGCCGCUGGGAACUAAUUUGUAUGCGAAAGUAUAUUGAUUAGUUUUGGAGUACUCGUGGUCG
Procedure, shortened: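 DiMSum derived fitness as the error-weighted combination of fold changes across replicates, kanamycin versus no kanamycin, normalised to wild type. E. coli BL21(DE3) held the library, which randomised all eight P1ex-region intron nucleotides within the knt kanamycin-resistance gene on pET-22b(+). Six replicate transformations grew overnight at 37°C or 30°C on LB agar with or without 25 μg/mL kanamycin, also containing 100 μg/mL carbenicillin, 50 μM IPTG and 0.2% rhamnose, and pooled colonies were amplicon-sequenced on an Illumina HiSeq 2500.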

Sequence | self-splicing fitness (ln) (30 °C) | self-splicing fitness (ln) (37 °C)
GACCAGCAAUAUUACGUUUC | -0.69 ± 0.065 | -0.568 ± 0.083
CAUGAGCAAUAUUACGGUUC | -3.65 ± 0.46 | -2.13 ± 0.38
GGAAAGCAAUAUUACGAGAG | -4.25 ± 0.26 | -0.533 ± 0.1
UGCCAGCAAUAUUACGCUUC | -3.19 ± 0.23 | -1.86 ± 0.22
GUAAAGCAAUAUUACGUAUU | -1.87 ± 0.076 | -1.69 ± 0.1
CUGGAGCAAUAUUACGUAGA |  | -2.67 ± 0.2
CUAGAGCAAUAUUACGAGGU | -3.26 ± 0.16 | -3.24 ± 0.3
CUAAAGCAAUAUUACGCCUG | 0.183 ± 0.087 | 0.129 ± 0.099
AAGAAGCAAUAUUACGAAAC | -1.82 ± 0.17 | -0.859 ± 0.15
UUAUAGCAAUAUUACGUCUA | -0.963 ± 0.15 | -0.336 ± 0.11
GGCGAGCAAUAUUACGUAUC | -1.61 ± 0.14 | -0.00113 ± 0.13
CUUAAGCAAUAUUACGUACC | -2.7 ± 0.35 | -0.17 ± 0.47
CGCGAGCAAUAUUACGUGCA | -2.08 ± 0.099 | -0.511 ± 0.095
AAUCAGCAAUAUUACGUGUG | -0.753 ± 0.053 | -0.737 ± 0.067
UCCAAGCAAUAUUACGUGCC | -3.87 ± 0.36 | -2.28 ± 0.26
CCAAAGCAAUAUUACGGCGA | -3.26 ± 0.21 | -3.01 ± 0.19
AUCUAGCAAUAUUACGUAUU | -2.56 ± 0.15 | -2.08 ± 0.19
UGAAAGCAAUAUUACGGCCC | -0.866 ± 0.26 | 0.448 ± 0.4
AAUAAGCAAUAUUACGACUA | -0.696 ± 0.12 | -0.486 ± 0.093
GCCGAGCAAUAUUACGCGUA | -0.983 ± 0.069 | -0.591 ± 0.066
UGACAGCAAUAUUACGUUGG | -2.08 ± 0.12 | -1.82 ± 0.13
UUUGAGCAAUAUUACGUCAG | -3.43 ± 0.2 | -1.46 ± 0.27
UAUUAGCAAUAUUACGAUCC | -3.56 ± 0.38 | -1.76 ± 0.25
UCACAGCAAUAUUACGUGCA | -0.403 ± 0.067 | 0.0083 ± 0.085
CCUGAGCAAUAUUACGAAUG | -2.21 ± 0.18 | -1.7 ± 0.19

Sequence | self-splicing fitness (ln) (30 °C) | self-splicing fitness (ln) (37 °C)
CUAUAGCAAUAUUACGAUUU |  | -0.748 ± 0.28
ACACAGCAAUAUUACGAUUU | -0.589 ± 0.036 | 0.0571 ± 0.056
ACGAAGCAAUAUUACGUGUU | -2.94 ± 0.07 | -1.81 ± 0.07
CGGUAGCAAUAUUACGAUGA | -1.38 ± 0.13 | -0.66 ± 0.16
UGUGAGCAAUAUUACGUAGA |  | -0.751 ± 0.44
UAAAAGCAAUAUUACGUAUU | -2.24 ± 0.14 | -1.88 ± 0.19
GAUGAGCAAUAUUACGUACA | -2.09 ± 0.16 | -0.48 ± 0.13
UCACAGCAAUAUUACGCCCA | -1.47 ± 0.19 | 0.000225 ± 0.15
UCGCAGCAAUAUUACGAAAG |  | -2.04 ± 0.36
AAGUAGCAAUAUUACGAUAG | -2.72 ± 0.16 | -2.64 ± 0.36
CCUGAGCAAUAUUACGUUUG | -3.6 ± 0.22 | -2.21 ± 0.18
CGACAGCAAUAUUACGAAUC | -4.11 ± 0.46 | -2.71 ± 0.34
AACUAGCAAUAUUACGUUGA | -1.52 ± 0.11 | -1.04 ± 0.12
GUGUAGCAAUAUUACGCGGA |  | -1.54 ± 0.36
ACUAAGCAAUAUUACGUAAU | -1.14 ± 0.073 | -0.739 ± 0.09
CUCGAGCAAUAUUACGACUC | -4.16 ± 0.22 | -2.61 ± 0.24
AGGUAGCAAUAUUACGUAGG | -3.667 ± 0.026 | -2.71 ± 0.039
GCUAAGCAAUAUUACGUACC | -0.573 ± 0.11 | 0.246 ± 0.17
UAGGAGCAAUAUUACGAACC | -3.08 ± 0.41 | 
GUUAAGCAAUAUUACGUACC | -0.386 ± 0.29 | 
UUCCAGCAAUAUUACGUGCA | -1.44 ± 0.1 | -1.11 ± 0.087
AUUAAGCAAUAUUACGAGAA |  | -1.08 ± 0.38
UGGAAGCAAUAUUACGAGUU | -3.25 ± 0.19 | -1.8 ± 0.16
CAGUAGCAAUAUUACGUGCG | -0.0402 ± 0.068 | 0.239 ± 0.088
CUCGAGCAAUAUUACGAUUC | -3.29 ± 0.47 | 

Sequence | self-splicing fitness (ln) (30 °C) | self-splicing fitness (ln) (37 °C)
AGGGAGCAAUAUUACGCCGA | -2.38 ± 0.25 | 
UCUCAGCAAUAUUACGGUCG | -1.96 ± 0.15 | -0.825 ± 0.14
CUCGAGCAAUAUUACGAUAC |  | -2.64 ± 0.36
UGUGAGCAAUAUUACGAAAU | -3.01 ± 0.18 | -3.22 ± 0.35
CGAGAGCAAUAUUACGUUGU |  | -1.57 ± 0.19
AAGUAGCAAUAUUACGCUGC |  | -0.747 ± 0.19
CGCGAGCAAUAUUACGUGGU | -3.27 ± 0.15 | -2.64 ± 0.21
CCUUAGCAAUAUUACGUACC | -3.04 ± 0.45 | 
CUGGAGCAAUAUUACGUGAC | -1.85 ± 0.18 | -0.992 ± 0.24
GGGGAGCAAUAUUACGUCCG | -0.963 ± 0.13 | -0.326 ± 0.2
UUUAAGCAAUAUUACGCACU | -0.382 ± 0.1 | -0.128 ± 0.12
CCAAAGCAAUAUUACGGACU | -2.27 ± 0.13 | -2.84 ± 0.22
GAAAAGCAAUAUUACGACCA | -0.386 ± 0.13 | 0.235 ± 0.19
AUCUAGCAAUAUUACGAUUC | -2.85 ± 0.18 | -1.23 ± 0.16
AUGGAGCAAUAUUACGCUUG | -1.46 ± 0.12 | -0.294 ± 0.12
UUGAAGCAAUAUUACGCAAA | -0.591 ± 0.13 | -0.121 ± 0.14
GAGCAGCAAUAUUACGGGCC | -2.94 ± 0.33 | -1.21 ± 0.29
CGGGAGCAAUAUUACGGGAG | -2.76 ± 0.22 | -2.44 ± 0.3
UAACAGCAAUAUUACGGGGA | -2.36 ± 0.15 | -2.1 ± 0.097
AUGUAGCAAUAUUACGUUGA | -3.43 ± 0.29 | -1.35 ± 0.22
AUGCAGCAAUAUUACGAACC | -1.17 ± 0.17 | -0.688 ± 0.21
UCAAAGCAAUAUUACGGUCU | -2.68 ± 0.16 | -1.58 ± 0.14
CUCGAGCAAUAUUACGGAGG | -2.97 ± 0.1 | -1.46 ± 0.097
AUAUAGCAAUAUUACGGGUA | -2.09 ± 0.25 | -0.788 ± 0.19
GAUUAGCAAUAUUACGAUAG | -2.37 ± 0.13 | -1.1 ± 0.16

Sequence | self-splicing fitness (ln) (30 °C) | self-splicing fitness (ln) (37 °C)
UGCUAGCAAUAUUACGUACU | -0.707 ± 0.075 | -0.893 ± 0.089
UACCAGCAAUAUUACGAUCG | -0.0679 ± 0.046 | -0.31 ± 0.06
CAUUAGCAAUAUUACGAUCG | 0.173 ± 0.082 | 0.274 ± 0.12
CCGUAGCAAUAUUACGAUGA | -1.48 ± 0.11 | -1.13 ± 0.12
CCGAAGCAAUAUUACGAUCA | -2.35 ± 0.13 | -0.736 ± 0.14
CCAUAGCAAUAUUACGACAG | -1.16 ± 0.092 | -0.413 ± 0.1
CAGGAGCAAUAUUACGUUGG | -2.44 ± 0.14 | -0.863 ± 0.14
AUCGAGCAAUAUUACGUCUU | -2.79 ± 0.12 | -1.41 ± 0.12
GCACAGCAAUAUUACGAGAG | -2.96 ± 0.14 | -1.33 ± 0.11
UCUCAGCAAUAUUACGGGUC | -4.37 ± 0.34 | -1.52 ± 0.16
UUUUAGCAAUAUUACGUAGA | -2.06 ± 0.22 | -0.71 ± 0.24
GGUAAGCAAUAUUACGUUAU | -2.4 ± 0.17 | -2.3 ± 0.24
GUGCAGCAAUAUUACGGAGG | -3.96 ± 0.22 | -2.55 ± 0.25
UGCAAGCAAUAUUACGGUUA | 0.147 ± 0.075 | 0.11 ± 0.078
CGUCAGCAAUAUUACGACUC | -0.282 ± 0.11 | 0.339 ± 0.16
GCAAAGCAAUAUUACGAACC | -0.831 ± 0.13 | -0.43 ± 0.17
GGUAAGCAAUAUUACGACCC | -1.6 ± 0.26 | -1.75 ± 0.43
UAUAAGCAAUAUUACGAGGU | -3.53 ± 0.23 | -2.54 ± 0.23
UCGCAGCAAUAUUACGGGGA | -1.31 ± 0.12 | -1.11 ± 0.1
ACUAAGCAAUAUUACGCGCU | -0.324 ± 0.093 | 0.362 ± 0.13
UGGUAGCAAUAUUACGUACA | -0.28 ± 0.087 | 0.35 ± 0.12
AUCUAGCAAUAUUACGUUUU | -2.93 ± 0.11 | -1.93 ± 0.12
CCUGAGCAAUAUUACGGCUG | -4.49 ± 0.31 | -1.76 ± 0.2
UCAUAGCAAUAUUACGUUCU | -2.79 ± 0.27 | -2.32 ± 0.21
